Measured values as given in PMC5225424.

Biological target: GmMYB176-YFP (soybean (Glycine max))
Test: FRET or BRET; FRET by acceptor bleaching, CFP as donor and YFP as acceptor, co-expressed in N. benthamiana leaf epidermal cells; average of multiple samples (n > 15)

“GmCYP1-CFP (from UniProt Q8W171 1-172) (natural protein)” was tested. Which FRET efficiency did it give?
The FRET efficiency was 23.8%.
